Laboratory results taken from US9187525B2, “Methods of treating ophthalmic diseases using NPR-B agonists” (Shire Orphan Therapies GmbH, dated 2015).
Numbered stars: 1 amine (or outer) side, 2 acyl side, 3 side chain; on linkers, the order of the positions; unused ones are H or OH. Square brackets hold non-standard residues; d marks the D form. Ends that are not written are not given here. * marks the point of attachment. Pro(trans-4-NH2) = O=C([C@@H]1C[C@@H](N[*:3])CN1[*:1])[*:2]; Sni = (S)-nipecotic acid, O=C([C@H]1CCCN([*:1])C1)[*:2]; Phe(3,4-Cl2) = N[C@@H](Cc1ccc(Cl)c(Cl)c1)C(=O)O; Butanoyl(4-cHex) = O=C(CCCC1CCCCC1)*; Butanoyl(4-Ph) = O=C(CCCc1ccccc1)*; NMeR = CN[C@@H](CCCNC(=N)N)C(=O)O; dDap(Me2) = CN(C)C[C@@H](N)C(=O)O; Hyp = O=C(O)[C@@H]1C[C@@H](O)CN1; NMeF = CN[C@@H](Cc1ccccc1)C(=O)O; NMeI = CC[C@H](C)[C@H](NC)C(=O)O; tBuAla = CC(C)(C)C[C@H](N)C(=O)O; NMeD = CN[C@@H](CC(=O)O)C(=O)O; NMeL = CN[C@@H](CC(C)C)C(=O)O; Octanoyl = CCCCCCCC(=O)*; Api = NC1(C(=O)O)CCNCC1; Che = not defined here; Occ = octanoic acid

T1: natriuretic peptide receptor-B (human)
T1 chain: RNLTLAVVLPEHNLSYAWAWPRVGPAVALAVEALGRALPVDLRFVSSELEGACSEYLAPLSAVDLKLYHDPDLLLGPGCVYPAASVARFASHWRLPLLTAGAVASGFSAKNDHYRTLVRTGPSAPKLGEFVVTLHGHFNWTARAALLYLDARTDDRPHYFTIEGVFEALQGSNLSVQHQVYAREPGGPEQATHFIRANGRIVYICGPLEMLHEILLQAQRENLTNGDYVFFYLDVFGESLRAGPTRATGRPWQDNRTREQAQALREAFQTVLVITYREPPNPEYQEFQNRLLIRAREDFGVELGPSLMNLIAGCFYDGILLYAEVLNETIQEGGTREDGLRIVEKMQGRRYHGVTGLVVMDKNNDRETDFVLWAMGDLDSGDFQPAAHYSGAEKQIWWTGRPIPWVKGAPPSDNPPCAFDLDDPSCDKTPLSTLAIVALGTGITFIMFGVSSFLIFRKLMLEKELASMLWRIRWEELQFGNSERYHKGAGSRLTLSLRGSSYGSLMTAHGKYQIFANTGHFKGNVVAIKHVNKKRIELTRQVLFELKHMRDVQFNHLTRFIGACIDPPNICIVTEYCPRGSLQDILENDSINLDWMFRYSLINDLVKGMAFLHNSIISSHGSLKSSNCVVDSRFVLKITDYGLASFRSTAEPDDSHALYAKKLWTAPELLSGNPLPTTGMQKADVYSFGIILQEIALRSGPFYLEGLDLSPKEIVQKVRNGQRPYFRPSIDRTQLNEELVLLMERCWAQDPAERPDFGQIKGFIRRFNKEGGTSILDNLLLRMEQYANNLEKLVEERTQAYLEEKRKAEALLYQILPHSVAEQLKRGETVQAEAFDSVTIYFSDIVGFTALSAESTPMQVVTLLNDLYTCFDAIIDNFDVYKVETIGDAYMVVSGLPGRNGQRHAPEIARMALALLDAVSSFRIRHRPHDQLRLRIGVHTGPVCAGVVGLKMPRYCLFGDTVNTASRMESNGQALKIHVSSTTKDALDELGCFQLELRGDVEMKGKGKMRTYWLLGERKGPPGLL

B1: JAL-1575 (peptide)
peptide: [Occ][Sni]F[dDap(Me2)]L[Hyp][NMeL]DR[NMeI]-NH2
B2: JAL-1594 (peptide)
peptide: Octanoyl-[Sni]FLL[Hyp][NMeL]VP[Che]
modifications: not fully specified (some residues); printed as Occ-Sni-Phe-leu-Leu-Hyp-Nml-Val-Pro-Che; reading uncertain
B3: JAL-1595 (peptide)
peptide: Octanoyl-[Sni]FLL[Hyp][tBuAla]DP[Che]
modifications: not fully specified (some residues); printed as Occ-Sni-Phe-leu-Leu-Hyp-Npg-Asp-Pro-Che; reading uncertain
B4: JAL-1580 (peptide)
peptide: [Occ][Sni]F[dDap(Me2)]L[Hyp][NMeL]DPI-NH2
B5: JAL-1599 (peptide)
peptide: Octanoyl-[Sni][Phe(3,4-Cl2)][dL]L[Hyp][NMeL]DP[Che]
modifications: not fully specified; printed as Occ-Sni-Eaa-leu-Leu-Hyp-Nml-Asp-Pro-Che; reading uncertain
B6: JAL-1579 (peptide)
peptide: [Occ][Sni][NMeF][dDap(Me2)]L[Hyp][NMeL]DRI-NH2
B7: JAL-1570 (peptide)
peptide: [Occ][Sni]F[dL]L[Hyp][NMeL]D[NMeR]I-NH2
B8: JAL-1561 (peptide)
peptide: [Occ][Sni]F[Api]L[Pro(trans-4-NH2)][NMeL]DPI-NH2
B9: JAL-1603 (peptide)
peptide: [Occ][Sni]F[dDap(Me2)]L[Pro(trans-4-NH2)][NMeL]DP[Che]
modifications: reading uncertain; also: printed as Occ-Sni-Phe-dap(Me2)-Leu-Tap-Nml-Asp-Pro-Che
B10: JAL-1560 (peptide)
peptide: [Occ][Sni]FGL[Pro(trans-4-NH2)][NMeL]DPI-NH2
B11: JAL-1596 (peptide)
peptide: Octanoyl-[Sni]FLL[Hyp]IDP[Che]
modifications: not fully specified (some residues); printed as Occ-Sni-Phe-leu-Leu-Hyp-Ile-Asp-Pro-Che; reading uncertain
B12: JAL-1572 (peptide)
peptide: [Occ][Sni]F[dL][NMeL][Hyp][NMeL]DRI-NH2
B13: JAL-1604 (peptide)
peptide: [Occ][Sni]F[dDap(Me2)]L[Hyp][NMeL]DP[Che]
modifications: reading uncertain; also: printed as Occ-Sni-Phe-dap(Me2)-Leu-Hyp-Nml-Asp-Pro-Che
B14: JAL-1578 (peptide)
peptide: [Occ][Sni]F[dDap(Me2)][NMeL][Hyp][NMeL]DRI-NH2
B15: JAL-1602 (peptide)
peptide: [Occ][Sni]F[Api]L[Pro(trans-4-NH2)][NMeL]DP[Che]
modifications: reading uncertain; also: printed as Occ-Sni-Phe-Apc-Leu-Tap-Nml-Asp-Pro-Che
B16: JAL-1605 (peptide)
peptide: {Butanoyl(4-Ph)}-[Sni]F[dL]L[Hyp][NMeL]DRI-NH2
B17: JAL-0695 (peptide)
peptide: {Butanoyl(4-cHex)}-[dP]FGLKLDRI-NH2
B18: JAL-1573 (peptide)
peptide: [Occ][Sni][NMeF][dL]L[Hyp][NMeL]DRI-NH2
B19: JAL-0694 (peptide)
peptide: Octanoyl-[dP]FGLKLDRI-NH2
B20: JAL-1600 (peptide)
peptide: [Occ][Sni]FGL[Hyp][NMeL]DP[Che]
modifications: reading uncertain; also: printed as Occ-Sni-Phe-Gly-Leu-Hyp-Nml-Asp-Pro-Che
B21: JAL-1576 (peptide)
peptide: [Occ][Sni]F[dDap(Me2)]L[Hyp][NMeL]D[NMeR]I-NH2
B22: JAL-1568 (peptide)
peptide: [Occ][Sni]F[dL]L[Pro(trans-4-NH2)][NMeL]DP[Che]
modifications: reading uncertain; also: printed as Occ-Sni-Phe-leu-Leu-Tap-Nml-Asp-Pro-Che
B23: JAL-1574 (peptide)
peptide: [Occ]XFXLXXDRI-NH2
modifications: not fully specified (residues 2, 4, 6, 7); printed as Occ-Sni-Phe-nml-Leu-Hyp-Nml-Asp-Arg-Ile-NH2
B24: JAL-1569 (peptide)
peptide: [Occ][Sni]F[dL]L[Hyp][NMeL]DR[NMeI]-NH2
B25: JAL-1597 (peptide)
peptide: Octanoyl-[Sni][NMeF][dL]L[Hyp][NMeL]DP[Che]
modifications: not fully specified; printed as Occ-Sni-Nmf-leu-Leu-Hyp-Nml-Asp-Pro-Che; reading uncertain
B26: JAL-1598 (peptide)
peptide: Octanoyl-[Sni]F[dL][NMeL][Hyp][NMeL]DP[Che]
modifications: not fully specified; printed as Occ-Sni-Phe-leu-Nml-Hyp-Nml-Asp-Pro-Che; reading uncertain
B27: JAL-1577 (peptide)
peptide: [Occ][Sni]F[dDap(Me2)]L[Hyp][NMeL][NMeD]RI-NH2
B28: JAL-1601 (peptide)
peptide: [Occ][Sni]F[Api]L[Hyp][NMeL]DP[Che]
modifications: reading uncertain; also: printed as Occ-Sni-Phe-Apc-Leu-Hyp-Nml-Asp-Pro-Che

Target: T1, natriuretic peptide receptor-B
Assay: cell-based or functional assay

Binder | EC50 group, cGMP in GTM-3 cells
B1 | ≤ 15000 nM
B2 | ≤ 5000 nM
B3 | ≤ 1000 nM
B4 | ≤ 1000 nM
B5 | ≤ 1000 nM
B6 | ≤ 1000 nM
B7 | ≤ 5000 nM
B8 | ≤ 1000 nM
B9 | ≤ 1000 nM
B10 | ≤ 5000 nM
B11 | ≤ 5000 nM
B12 | ≤ 15000 nM
B13 | ≤ 1000 nM
B14 | ≤ 5000 nM
B15 | ≤ 1000 nM
B16 | ≤ 1000 nM
B17 | ≤ 15000 nM
B18 | ≤ 1000 nM
B19 | ≤ 15000 nM
B20 | ≤ 5000 nM
B21 | ≤ 1000 nM
B22 | ≤ 1000 nM
B23 | ≤ 15000 nM
B24 | ≤ 1000 nM
B25 | ≤ 1000 nM
B26 | ≤ 15000 nM
B27 | ≤ 15000 nM
B28 | ≤ 5000 nM
